Measured values published in PMC3787081, “The Heteromultimeric Debranching Enzyme Involved in Starch Synthesis in Arabidopsis Requires Both Isoamylase1 and Isoamylase2 Subunits for Complex Stability and Activity” (PLoS ONE, 2013).

Biological target: T1, ISA2-TAP (ISA2 with a C-terminal tandem affinity purification tag) (Arabidopsis, UniProt Q8L735 71-882)
T1 construct: Isoamylase 2 (ISA2) of Arabidopsis thaliana; the chloroplast transit peptide is probably removed in the plant (surmised); also called TAP-tagged ISA2; ISA2-TAP tagged protein; source: Arabidopsis isa2-1 plants transformed with 35S::ISA2-TAP, leaf extract
T1 sequence (looked up): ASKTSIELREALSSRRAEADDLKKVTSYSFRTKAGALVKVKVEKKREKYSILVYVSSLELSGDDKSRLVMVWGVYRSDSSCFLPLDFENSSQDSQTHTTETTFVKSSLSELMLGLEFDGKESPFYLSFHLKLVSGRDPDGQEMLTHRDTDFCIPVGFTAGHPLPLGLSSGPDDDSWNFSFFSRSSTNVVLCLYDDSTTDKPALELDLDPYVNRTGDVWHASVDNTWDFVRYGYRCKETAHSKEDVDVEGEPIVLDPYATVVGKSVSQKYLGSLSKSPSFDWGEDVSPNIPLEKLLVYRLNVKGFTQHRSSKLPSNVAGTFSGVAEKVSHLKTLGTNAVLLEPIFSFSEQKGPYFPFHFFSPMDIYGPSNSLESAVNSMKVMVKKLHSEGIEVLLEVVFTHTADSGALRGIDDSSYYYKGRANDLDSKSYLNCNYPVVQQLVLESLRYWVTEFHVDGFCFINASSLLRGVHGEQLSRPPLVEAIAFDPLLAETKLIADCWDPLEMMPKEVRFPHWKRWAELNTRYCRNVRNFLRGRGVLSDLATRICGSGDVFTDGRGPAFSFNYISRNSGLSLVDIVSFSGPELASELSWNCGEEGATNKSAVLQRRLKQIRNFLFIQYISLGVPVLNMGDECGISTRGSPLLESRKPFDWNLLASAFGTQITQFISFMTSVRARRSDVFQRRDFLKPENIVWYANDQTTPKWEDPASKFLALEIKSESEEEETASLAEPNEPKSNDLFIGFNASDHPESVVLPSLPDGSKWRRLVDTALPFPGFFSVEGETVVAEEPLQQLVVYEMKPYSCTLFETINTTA
Assay: affinity purification with mass spectrometry; tandem affinity purification of ISA2-TAP from leaf extracts (IgG-Sepharose, TEV elution, Calmodulin Sepharose with 2 mM CaCl2, EGTA elution); SDS-PAGE, silver stain, in-gel tryptic digestion, LC-MS/MS; wild-type extracts as control
Settings: partners not purified

B1: Isoamylase1 (ISA1), Arabidopsis, endogenous (enzyme, UniProt O04196 44-783, looked up)
chain: AKDRRSNEAENIAVVEKPLKSDRFFISDGLPSPFGPTVRDDGVNFSVYSTNSVSATICLISLSDLRQNKVTEEIQLDPSRNRTGHVWHVFLRGDFKDMLYGYRFDGKFSPEEGHYYDSSNILLDPYAKAIISRDEFGVLGPDDNCWPQMACMVPTREEEFDWEGDMHLKLPQKDLVIYEMHVRGFTRHESSKIEFPGTYQGVAEKLDHLKELGINCIELMPCHEFNELEYYSYNTILGDHRVNFWGYSTIGFFSPMIRYASASSNNFAGRAINEFKILVKEAHKRGIEVIMDVVLNHTAEGNEKGPIFSFRGVDNSVYYMLAPKGEFYNYSGCGNTFNCNHPVVRQFILDCLRYWVTEMHVDGFRFDLGSIMSRSSSLWDAANVYGADVEGDLLTTGTPISCPPVIDMISNDPILRGVKLIAEAWDAGGLYQVGMFPHWGIWSEWNGKFRDVVRQFIKGTDGFSGAFAECLCGSPNLYQGGRKPWHSINFICAHDGFTLADLVTYNNKNNLANGEENNDGENHNYSWNCGEEGDFASISVKRLRKRQMRNFFVSLMVSQGVPMIYMGDEYGHTKGGNNNTYCHDNYMNYFRWDKKEEAHSDFFRFCRILIKFRDECESLGLNDFPTAKRLQWHGLAPEIPNWSETSRFVAFSLVDSVKKEIYVAFNTSHLATLVSLPNRPGYRWEPFVDTSKPSPYDCITPDLPERETAMKQYRHFLDANVYPMLSYSSIILLLSPIKDP
notes: Isoamylase 1 (ISA1) of Arabidopsis thaliana, endogenous protein in soluble leaf extracts; Chloroplast protein; also called AtISA1; source: endogenous, Arabidopsis leaf extracts (wild type and ISA2-TAP plants)
stoichiometry N: 1
